Reference: the Human Domainome abundance scans (Beltran et al. 2025)
± gives the uncertainty stated by the source.

B1: Ankyrin repeat and SAM domain-containing protein 6, residues 774 to 836; numbered along this chain, Q68DC2 (parent)
chain: DEDELTGILKKLSLEKYQPIFEEQEVDMEAFLTLTDGDLKELGIKTDGSRQQILAAISELNAG

Variants of: B1
Assay: abundance fitness (aPCA) (normalised: wild type 0, dead -1); higher = more abundant; growth selection in yeast, the domain comes from the species named
Conditions: Homo sapiens

DEDELTGILKKLSLEKYQPIFEEQEVDMYAFLTLTDGDLKELGIKTDGSRQQILAAISELNAG [E29Y] and DEDELTGILKKLSLEKYQPIFEEQEVDMMAFLTLTDGDLKELGIKTDGSRQQILAAISELNAG [E29M] are within error of each other in abundance fitness: -0.417 ± 0.086 for the first, -0.318 ± 0.075 for the second.

Going from DEDELTGILKKLSLEKYQPIFEEQEVDMSAFLTLTDGDLKELGIKTDGSRQQILAAISELNAG [E29S] to DEDELTGILKKLSLEKYQPIFEEQEVDMDAFLTLTDGDLKELGIKTDGSRQQILAAISELNAG [E29D], the abundance fitness rises from -0.228 ± 0.043 to -0.107 ± 0.05.

DEDELTGILKKLSLEKYQPIFEEQEVDMNAFLTLTDGDLKELGIKTDGSRQQILAAISELNAG [E29N] and DEDELTGILKKLSLEKYQPIFEEQEVDMLAFLTLTDGDLKELGIKTDGSRQQILAAISELNAG [E29L] are within error of each other in abundance fitness: -0.32 ± 0.22 for the first, -0.51 ± 0.046 for the second.

First: DEDELTGILKKLSLEKYQPIFEEQEVDMTAFLTLTDGDLKELGIKTDGSRQQILAAISELNAG [E29T]
Second: DEDELTGILKKLSLEKYQPIFEEQEVDMFAFLTLTDGDLKELGIKTDGSRQQILAAISELNAG [E29F]
The abundance fitness of the first is higher: -0.123 ± 0.046 for the first, -0.648 ± 0.097 for the second.

First: DEDELTGILKKLSLEKYQPIFEEQEVDMPAFLTLTDGDLKELGIKTDGSRQQILAAISELNAG [E29P]
Second: DEDELTGILKKLSLEKYQPIFEEQEVDMVAFLTLTDGDLKELGIKTDGSRQQILAAISELNAG [E29V]
The abundance fitness of the first is higher: -0.105 ± 0.056 for the first, -0.334 ± 0.051 for the second.

DEDELTGILKKLSLEKYQPIFEEQEVDMQAFLTLTDGDLKELGIKTDGSRQQILAAISELNAG [E29Q] and DEDELTGILKKLSLEKYQPIFEEQEVDMGAFLTLTDGDLKELGIKTDGSRQQILAAISELNAG [E29G] are within error of each other in abundance fitness: -0.097 ± 0.049 for the first, -0.162 ± 0.047 for the second.

First: DEDELTGILKKLSLEKYQPIFEEQEVDMEAFWTLTDGDLKELGIKTDGSRQQILAAISELNAG [L32W]
Second: DEDELTGILKKLSLEKYQPIFEEQEVDMEAFPTLTDGDLKELGIKTDGSRQQILAAISELNAG [L32P]
The abundance fitness of the first is lower: -0.536 ± 0.058 for the first, -0.199 ± 0.056 for the second.

First: DEDELTGILKKLSLEKYQPIFEEQEVDMEAFITLTDGDLKELGIKTDGSRQQILAAISELNAG [L32I]
Second: DEDELTGILKKLSLEKYQPIFEEQEVDMEAFDTLTDGDLKELGIKTDGSRQQILAAISELNAG [L32D]
The abundance fitness of the first is higher: -0.181 ± 0.042 for the first, -0.408 ± 0.068 for the second.

Going from DEDELTGILKKLSLEKYQPIFEEQEVDMEAFRTLTDGDLKELGIKTDGSRQQILAAISELNAG [L32R] to DEDELTGILKKLSLEKYQPIFEEQEVDMEAFMTLTDGDLKELGIKTDGSRQQILAAISELNAG [L32M], the abundance fitness falls from 0.039 ± 0.043 to -0.083 ± 0.065.

First: DEDELTGILKKLSLEKYQPIFEEQEVDMEAFGTLTDGDLKELGIKTDGSRQQILAAISELNAG [L32G]
Second: DEDELTGILKKLSLEKYQPIFEEQEVDMEAFVTLTDGDLKELGIKTDGSRQQILAAISELNAG [L32V]
The abundance fitness of the first is lower: -0.251 ± 0.048 for the first, -0.103 ± 0.049 for the second.

Compared with DEDELTGILKKLSLEKYQPIFEEQEVDMEAFNTLTDGDLKELGIKTDGSRQQILAAISELNAG [L32N], DEDELTGILKKLSLEKYQPIFEEQEVDMEAFTTLTDGDLKELGIKTDGSRQQILAAISELNAG [L32T] is higher in abundance fitness: -0.295 ± 0.071 for the first, -0.157 ± 0.06 for the second.

Compared with DEDELTGILKKLSLEKYQPIFEEQEVDMEAFYTLTDGDLKELGIKTDGSRQQILAAISELNAG [L32Y], DEDELTGILKKLSLEKYQPIFEEQEVDMEAFKTLTDGDLKELGIKTDGSRQQILAAISELNAG [L32K] is higher in abundance fitness: -0.334 ± 0.073 for the first, 0.264 ± 0.059 for the second.

First: DEDELTGILKKLSLEKYQPIFEEQEVDMEAFETLTDGDLKELGIKTDGSRQQILAAISELNAG [L32E]
Second: DEDELTGILKKLSLEKYQPIFEEQEVDMEAFATLTDGDLKELGIKTDGSRQQILAAISELNAG [L32A]
The abundance fitness of the first is lower: -0.271 ± 0.071 for the first, -0.097 ± 0.055 for the second.

First: DEDELTGILKKLSLEKYQPIFEEQEVDMEAFLPLTDGDLKELGIKTDGSRQQILAAISELNAG [T33P]
Second: DEDELTGILKKLSLEKYQPIFEEQEVDMEAFLWLTDGDLKELGIKTDGSRQQILAAISELNAG [T33W]
The abundance fitness of the first is lower: -0.712 ± 0.074 for the first, -0.49 ± 0.055 for the second.

First: DEDELTGILKKLSLEKYQPIFEEQEVDMEAFLRLTDGDLKELGIKTDGSRQQILAAISELNAG [T33R]
Second: DEDELTGILKKLSLEKYQPIFEEQEVDMEAFLFLTDGDLKELGIKTDGSRQQILAAISELNAG [T33F]
The abundance fitness of the first is higher: 0.048 ± 0.032 for the first, -0.642 ± 0.17 for the second.

Compared with DEDELTGILKKLSLEKYQPIFEEQEVDMEAFLYLTDGDLKELGIKTDGSRQQILAAISELNAG [T33Y], DEDELTGILKKLSLEKYQPIFEEQEVDMEAFLMLTDGDLKELGIKTDGSRQQILAAISELNAG [T33M] is higher in abundance fitness: -0.496 ± 0.13 for the first, -0.048 ± 0.098 for the second.

Going from DEDELTGILKKLSLEKYQPIFEEQEVDMEAFLQLTDGDLKELGIKTDGSRQQILAAISELNAG [T33Q] to DEDELTGILKKLSLEKYQPIFEEQEVDMEAFLVLTDGDLKELGIKTDGSRQQILAAISELNAG [T33V], the abundance fitness falls from -0.071 ± 0.073 to -0.215 ± 0.043.

Going from DEDELTGILKKLSLEKYQPIFEEQEVDMEAFLHLTDGDLKELGIKTDGSRQQILAAISELNAG [T33H] to DEDELTGILKKLSLEKYQPIFEEQEVDMEAFLILTDGDLKELGIKTDGSRQQILAAISELNAG [T33I], the abundance fitness falls from -0.012 ± 0.21 to -0.507 ± 0.15.

DEDELTGILKKLSLEKYQPIFEEQEVDMEAFLGLTDGDLKELGIKTDGSRQQILAAISELNAG [T33G] and DEDELTGILKKLSLEKYQPIFEEQEVDMEAFLSLTDGDLKELGIKTDGSRQQILAAISELNAG [T33S] are within error of each other in abundance fitness: -0.057 ± 0.041 for the first, -0.023 ± 0.042 for the second.

Compared with DEDELTGILKKLSLEKYQPIFEEQEVDMEAFLNLTDGDLKELGIKTDGSRQQILAAISELNAG [T33N], DEDELTGILKKLSLEKYQPIFEEQEVDMEAFLKLTDGDLKELGIKTDGSRQQILAAISELNAG [T33K] is higher in abundance fitness: -0.053 ± 0.098 for the first, 0.141 ± 0.05 for the second.

DEDELTGILKKLSLEKYQPIFEEQEVDMEAFLELTDGDLKELGIKTDGSRQQILAAISELNAG [T33E] and DEDELTGILKKLSLEKYQPIFEEQEVDMEAFLDLTDGDLKELGIKTDGSRQQILAAISELNAG [T33D] are within error of each other in abundance fitness: -0.032 ± 0.095 for the first, -0.122 ± 0.071 for the second.

Work on DEDELTGILKKLSLEKYQPIFEEQEVDMEAFLALTDGDLKELGIKTDGSRQQILAAISELNAG [T33A] yielded an abundance fitness of -0.037 ± 0.053.
